Experimental data reported in the PETadex activity labels (doi:10.1002/anie.202203061).

Experiments:
PET [1] = test: Proxy for plastic degradation [Released monomer concentration (HPLC/LC-MS) (TPA)]
PET [2] = test: Proxy for plastic degradation [Released monomer concentration (HPLC/LC-MS) (MHET)]
[3] = Melting temperature [DSF / Thermofluor]; conditions: pH 7.5; part of the chain shown

B1: unnamed (protein)
chain: MNKSILEKIAVGTSALLFSVSAFSFTPSPTPDPDPEPQPCQGECDFTRGPAPSSSYLEASSGPYSVNTVNVSRSVSGFGGGTIHYPTNTTGTMGAIAIVPGFLAGESSIAWWGPRLASHGFVVITIATNSTFDQPASRETQLGRALDYVISQSNSNSSDISGMVDSTRVGAMGWSMGGGGALRIASGSRLSAAIPLAPWHTGSNDFDEIDTPTMIIACENDSTAPVRSHASPFYNSIPSTTDKALLEINNGSHSCANGGGSNGGLLGKYGVSWMKRFIDEDTRYSQFLCGPNHASNSAISEYRETCDY
- Proxy for plastic degradation (PET [1]; 30 °C): 20 µM
- Proxy for plastic degradation (PET [1]; 37 °C): 20 µM
- Proxy for plastic degradation (PET [1]; 45 °C): 20 µM
- Proxy for plastic degradation (PET [1]; 55 °C): 20 µM
- Proxy for plastic degradation (PET [1]; 65 °C): 20 µM
- Proxy for plastic degradation (PET [2]; 30 °C): 3 µM
- Proxy for plastic degradation (PET [2]; 37 °C): 2 µM
- Proxy for plastic degradation (PET [2]; 45 °C): 2 µM
- Proxy for plastic degradation (PET [2]; 55 °C): 1 µM
- Proxy for plastic degradation (PET [2]; 65 °C): 1 µM

B2: unnamed (protein)
chain: MNFPRASRLMQAAVLGGLMAVSAAATAQTNPYARGPNPTAASLEASAGPFTVRSFTVSRPSGYGAGTVYYPTNAGGTVGAIAIVPGYTARQSSIKWWGPRLASHGFVVITIDTNSTLDQPSSRSSQQMAALRQVASLNGTSSSPIYGKVDTARMGVMGWSMGGGGSLISAANNPSLKAAAPQAPWDSSTNFSSVTVPTLIFACENDSIAPVNSSALPIYDSMSRNAKQFLEINGGSHSCANSGNSNQALIGKKGVAWMKRFMDNDTRYSTFACENPNSTRVSDFRTANCS
- Melting temperature [3]: 42 °C
- Proxy for plastic degradation (PET [1]; 30 °C, part of the chain shown): 30 µM
- Proxy for plastic degradation (PET [1]; 37 °C, part of the chain shown): 25 µM
- Proxy for plastic degradation (PET [1]; 45 °C, part of the chain shown): 20 µM
- Proxy for plastic degradation (PET [1]; 55 °C, part of the chain shown): 20 µM
- Proxy for plastic degradation (PET [1]; 65 °C, part of the chain shown): 10 µM
- Proxy for plastic degradation (PET [2]; 30 °C, part of the chain shown): 3 µM
- Proxy for plastic degradation (PET [2]; 37 °C, part of the chain shown): 2 µM
- Proxy for plastic degradation (PET [2]; 45 °C, part of the chain shown): 2 µM
- Proxy for plastic degradation (PET [2]; 55 °C, part of the chain shown): 1 µM
- Proxy for plastic degradation (PET [2]; 65 °C, part of the chain shown): 1 µM
